Each block holds one binder with its values, some of them ahead of it.
Columns and labels:
[1] = target: T1, soluble mouse BLyS (mouse, UniProt Q9WU72 127-309); experiment: DELFIA competition, Eu-mBLyS binding to coated TACI
T1 construct: europium-labelled in DELFIA; also called mBLyS; mouse BAFF (BLyS)
Protocol: (§1) After 5× washing with 200 ul/well of DELFIA 1× wash solution (PE, Cat #4010-0010), plates were blocked with 3% BSA purified from trace heavy metal amounts (PE, Cat #CR84-100) for 3 hours with shaking at room temperature. Plates were washed again five times at 200 μl/well with DELFIA wash solution.
(§2) The final 3 wells across the plate served as controls (2 wells contained 2,000 pM mAbs for negative and background controls while the third contained no mAbs for positive control). […] After 18-24 hrs at 4° C., plates were read on PE EnVision plate reader with laser excitation, LANCE/DELFIA top mirror, and emission filter Eu-615 with a delay of 400 μs. Data were fit to four parameter (variable slope) inhibition dose response curve using GraphPad PRISM 5.0 software.

[2] = target: T2, soluble human BLyS (human, UniProt Q9Y275 134-285); experiment: DELFIA competition, Eu-hBLyS binding to coated BR3
T2 construct: also called hBLyS; human BAFF (BLyS)
Protocol: as §1, §2

[3] = target: T1, soluble mouse BLyS; experiment: Biacore, antibody captured on chip, BLyS injected, 1:1 model, 25 C
Protocol: (§3) Recombinant protein NG (Thermo Scientific, Cat #21186) was diluted to 100 μg/ml in 10 mM sodium acetate pH 4.0 and then immobilized on the surface of a pre-activated Series S CM5 Biacore chip (GE, Cat #BR-1005-34) using amine coupling. […] After the dissociation period, the chip was regenerated back to baseline by injecting 10 mM glycine pH 1.5 for 120 seconds over the four flow cells. […] The entire data set was fit to a 1:1 interaction model to give kₒₙ, koff, and Kd values. The assay was run at 25° C. in 1× biacore running buffer HBS-EP+ (GE, Cat #BR-1006-69).

[4] = target: T2, soluble human BLyS; experiment: as above
Protocol: as §3

[5] = target: T1, soluble mouse BLyS; experiment: DELFIA competition, Eu-mBLyS binding to coated BCMA
Protocol: as §1, §2

[6] = target: T2, soluble human BLyS; experiment: DELFIA competition, Eu-hBLyS binding to coated TACI
Protocol: as §1, §2

[7] = target: T1, soluble mouse BLyS; experiment: Biacore T100, binder captured by anti-human Fc, BLyS injected, 1:1 model
Protocol: (§4) A Series S CM5 Chip (GE Healthcare) was amine coupled with an anti-human Fc capturing antibody (GE Healthcare Human Fc Kit) to >10,000 RUs. Sample antibodies were diluted in 1×HBS-EP+ running buffer to 0.15 ug/mL and injected for 45 seconds at 10 uL/min. […] Biacore Evaluation software was used to fit the data to a 1:1 Binding Model.

[8] = target: T2, soluble human BLyS; experiment: as above
Protocol: as §4

[9] = target: T2, soluble human BLyS; experiment: DELFIA competition, Eu-hBLyS binding to coated BCMA
Protocol: as §1, §2

[10] = target: T1, soluble mouse BLyS; experiment: DELFIA competition, Eu-mBLyS binding to coated BR3
Protocol: as §1, §2

[11] = target: T3, mouse APRIL (mouse, UniProt Q9D777 96-241, limits assumed); experiment: Biacore, antibody captured, APRIL injected
T3 construct: Bought recombinant protein; also called mAPRIL
T3 sequence (looked up): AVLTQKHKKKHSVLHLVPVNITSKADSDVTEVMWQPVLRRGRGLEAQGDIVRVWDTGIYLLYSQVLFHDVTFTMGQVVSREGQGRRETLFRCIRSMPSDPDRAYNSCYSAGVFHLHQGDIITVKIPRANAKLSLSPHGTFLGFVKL
Protocol: (§5) Recombinant protein NG (Thermo Scientific, Cat #21186) was diluted to 100 μg/ml in 10 mM Sodium Acetate pH 4.0 and then immobilized on the surface of a pre-activated Series S CM4 Biacore chip (GE, Cat #BR-1005-34) using amine coupling. […] Binding response was measured as the difference in total RU increase during 300 second APRIL injection of each individual flow cell and the reference flow cell (e.g., Flow cell 2-1).

[12] = target: T4, human APRIL (human, UniProt O75888 105-250, limits assumed); experiment: Biacore, antibody captured, APRIL injected
T4 construct: Bought recombinant protein; also called hAPRIL
T4 sequence (looked up): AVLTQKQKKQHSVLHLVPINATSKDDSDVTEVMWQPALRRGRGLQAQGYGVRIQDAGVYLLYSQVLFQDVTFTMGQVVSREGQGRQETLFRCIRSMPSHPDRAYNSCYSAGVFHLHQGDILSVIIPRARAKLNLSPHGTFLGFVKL
Protocol: as §5

[13] = target: T5, soluble cynomolgus BLyS (cynomolgus, UniProt A0A2K5V2X4 134-285); experiment: ELISA, soluble cyBLyS
T5 construct: Soluble form; also called cyBLyS; Soluble cyBLyS

[14] = target: T2, soluble human BLyS; experiment: ELISA, soluble hBLyS
[15] = target: T2, soluble human BLyS; experiment: blocking of biotinylated soluble hBLyS binding to immobilized mBR3
[16] = target: T1, soluble mouse BLyS; experiment: Biacore
[17] = target: T2, soluble human BLyS; experiment: Biacore
[18] = target: T1, soluble mouse BLyS; experiment: ELISA, soluble mBLyS
[19] = target: T2, soluble human BLyS; experiment: cell-based or functional assay

- IC50 [1]: > 2 nM
- IC50 [2]: 0.101 nM
- Kd [3]: 0.099 nM
- koff [3]: 5.7e-05 s⁻¹
- kon [3]: 580000 M⁻¹ s⁻¹
- Kd [4]: 0.138 nM
- koff [4]: 3.5e-05 s⁻¹
- kon [4]: 260000 M⁻¹ s⁻¹
- IC50 [5]: > 2 nM
- IC50 [6]: < 0.3 pM
- Kd [7]: 0.134 nM
- koff [7]: 0.000196 s⁻¹
- kon [7]: 1.46e+06 M⁻¹ s⁻¹
- Kd [8]: 0.049 nM
- koff [8]: 5.4e-05 s⁻¹
- kon [8]: 1.11e+06 M⁻¹ s⁻¹
- IC50 [9]: 1.28 nM
- IC50 [10]: > 2 nM
- binding result [11]: no binding (tested: 50 nM)
- binding result [12]: no binding (tested: 50 nM)
B1: 8D12 IgG1 F243A/V264A double mutein expressed in Pichia pastoris (antibody, V domains shown)
VH: QVQLVQSGAEVKKPGASVKVSCKASGYTFTSYAMHWVRQAPGQRLEWMGWINAGNGNTKYSQKFQGRVTITRDTSASTAYMELSSLRSEDTAVYYCARAYYDILTGYSVYGMDVWGQGTTVTVSS
VL: EIVLTQSPATLSLSPGERATLSCRANESVGNYLAWYQQKPGQAPRLLIYGASRRATGIPDRFSGSGSGTDFTLTISRLEPEDFAVYYCQQYGSSLLTFGGGTKVEIKR
notes: IgG1 F243A/V264A (EU) double mutein, alpha-2,6-sialylated, from glycoengineered Pichia pastoris; also called 8D12-DM; 8D12-DM (Pichia)

- IC50 [13]: 0.08 nM
- IC50 [1]: > 2 nM
- IC50 [2]: 0.0622 nM
- IC50 [14]: 0.13 nM
- IC50 [5]: > 2 nM
- IC50 [6]: < 0.3 pM
- IC50 [15]: 10 nM
- Kd [16]: 0.028 nM
- Kd [17]: 0.66 nM
- IC50 [9]: 0.63 nM
- IC50 [10]: > 2 nM
- binding result [11]: no binding (tested: 50 nM)
- binding result [12]: no binding (tested: 50 nM)
- IC50 [18]: 0.16 nM
B2: 8D12 IgG expressed in HEK293 cells (antibody, V domains shown)
VH: B1 VH
VL: B1 VL
notes: IgG from HEK293-FreeStyle cells; also called 8D12 (293)

- IC50 hBLyS stimulated, mouse splenic B-cell proliferation [19]: 18 ng/mL
- Kd [7]: 0.0635 nM
- koff [7]: 0.000125 s⁻¹
- kon [7]: 1.98e+06 M⁻¹ s⁻¹
- Kd [8]: 0.167 nM
- koff [8]: 8.55e-05 s⁻¹
- kon [8]: 506000 M⁻¹ s⁻¹
- IC50 [10]: > 2 nM
B3: belimumab (antibody, V domains shown)
VH: QVQLQQSGAEVKKPGSSVRVSCKASGGTFNNNAINWVRQAPGQGLEWMGGIIPMFGTAKYSQNFQGRVAITADESTGTASMELSSLRSEDTAVYYCARSRDLLLFPHHALSPWGRGTMVTVSS
VL: SSELTQDPAVSVALGQTVRVTCQGDSLRSYYASWYQQKPGQAPVLVIYGKNNRPSGIPDRFSGSSSGNTASLTITGAQAEDEADYYCSSRDSSGNHWVFGGGTELTVLG

Source: US20170101466A1 (published 2017)
